# Starred links: 1 amine or outer side, 2 acyl side, 3 side chain; linkers in the order of their positions; H or OH if unused. Positions of bridges follow the written chain, without caps; N, C: chain ends. Non-standard residues stand in square brackets, D forms with d. Residues, ends and D or L forms follow the SMILES beside them. Groups on a side chain read outwards from the residue. Primed or numbered codes have the meaning given here. ξ: configuration not given here. *: point of attachment. 2Peg11′ = —[C(O)—CH2—CH2—(OCH2CH2)12—NH]— (PEG12 unit); PEG12 = NCCOCCOCCOCCOCCOCCOCCOCCOCCOCCOCCOCCOCCC(=O)O; X11 = NCCCC[C@@H](N[*:2])C(=O)C[C@@H](CS[*:1])C(N)=O; C18 diacid = O=C(O)CCCCCCCCCCCCCCCCC(=O)*; Dip = N[C@H](C(=O)O)C(c1ccccc1)c1ccccc1; X10 = CCC(=O)CC[C@H](N[*:1])C(=O)[*:2]; X9 = O=C([C@@H](N[*:1])SC[*:3])[*:2]; Palmitoyl = CCCCCCCCCCCCCCCC(=O)*; β3hF = N[C@H](CC(=O)O)Cc1ccccc1; Aic = NC1(C(=O)O)Cc2ccccc2C1; hLeu = CC(C)CC[C@H](N)C(=O)O; ξIle = CC[C@H](C)C(N)C(=O)O; Isovaleryl = CC(C)CC(=O)*; Dap = NC[C@H](N)C(=O)O; AEEA = NCCOCCOCC(=O)O; Npc = nipecotic acid; Ahx = NCCCCCC(=O)O
# B1: Compound 202 (peptide)
# peptide: XETXXPCIXXXC
# modifications: Isovaleric Acid-E-T-[His_1Me]-[Dpa]-P-C-I-[Lys(PEG12_Palm)]-[bhPhe]-[(D)Lys]-C-NH2
# B2: Compound 53 (peptide)
# peptide: XETHXPCIXXXC
# modifications: Isovaleric Acid-E-T-H-[(4F)Phe]-P-[Cys]-I-[Lys(2Peg11′_Palm)]-[bhPhe]-[(D)Lys]-[Cys]-NH2
# B3: Compound 19 (peptide)
# peptide: XETHXPCIXXXXC
# modifications: Isovaleric Acid-E-T-H-[Dpa]-P-[Cys]-I-[(D)Lys(2Peg11′_OMe)]-[bhPhe]-[Lys(Ahx_Palm)]-[(D)Lys(2Peg11′_OMe)]-[Cys]-NH2
# B4: Compound 6 (peptide)
# peptide: XETHXPCIXXXXC
# modifications: Isovaleric Acid-E-T-H-[Dpa]-P-[Cys]-I-[(D)Lys]-[bhPhe]-[Lys(Ahx_Palm)]-[(D)Lys]-[Cys]-NH2
# B5: Compound 113 (peptide)
# peptide: XETHXPCIXXXC
# modifications: Isovaleric Acid-E-T-H-[Dpa]-P-[Cys]-I-[Lys(2Peg11′_C18_Diacid)]-[bhPhe]-[(D)Lys]-[Cys]-NH2
# B6: Compound 12 (peptide)
# peptide: XETHXPCIXXXC
# modifications: Isovaleric Acid-E-T-H-[Dpa]-P-[Cys]-I-[Lys(1Peg2_1Peg2_Ahx_C18_Diacid)]-[bhPhe]-[(D)Lys]-[Cys]-NH2
# B7: Compound 2 (peptide)
# peptide: XETHXPCIXXXXC
# modifications: Isovaleric Acid-E-T-H-[Dpa]-P-[Cys]-I-[(D)Lys]-[Dpa]-[Lys(2Peg11′_Palm)]-[(D)Lys]-[Cys]-NH2
# B8: Compound 98 (peptide)
# peptide: XETHXPCIXXXC
# modifications: not fully specified; [Diacid_C18_isoGlu_PEG2_PEG2]-E-T-H-[Dpa]-P-[Cys]-I-[(D)Lys]-[bhPhe]-[(D)Lys]-[Cys]-NH2
# B9: Compound 123 (peptide)
# peptide: XETHXPCIXXXCX
# modifications: Isovaleric Acid-E-T-H-[Dpa]-P-[Cys]-I-[Lys(Ac)]-[bhPhe]-[(D)Lys(Ac)]-[Cys]-[(D)Glu]-NH2
# B10: Compound 99 (peptide)
# peptide: XETHXPCIXXXC
# modifications: [C18_diacid_Ahx_PEG2_PEG2]-E-T-H-[Dpa]-P-[Cys]-I-[(D)Lys]-[bhPhe]-[(D)Lys]-[Cys]-NH2
# System: LAD2 cells
# Experiment: not given
# Format: cell-based, human
# Conditions: LAD2 mast cells, β-hexosaminidase release, 30 minutes incubation; read-out: EC50: LAD2
# Text: In anaphylactoid reactions, the main mechanism involves the direct stimulation of mast cells or basophils, leading to the release of anaphylactic mediators such as histamine and β-hexosaminidase. A recent study by McNeil et al. (McNeil B D et al., 2015) reported that MrgprX2, a specific membrane receptor on human mast cells, induces anaphylactoid reactions. The LAD2 (Laboratory of Allergic Diseases 2) human mast cell line, derived from human mast cell sarcoma/leukemia (Kirshenbaum et al., 2003), is commonly employed to study anaphylactoid reactions, because its biological properties are identical to those of primary human mast cells, including the overexpression of the MrgprX2 receptor and sensitivity towards degranulating peptides (Kulka et al., 2008). The release of anaphylactic mediators such as f-hexosaminidase, is assessed by fluorometric quantification.
# On the day of the assay, serial dilutions of compounds were added to LAD2 cells plated at 20000 cells/well in a 96-well plate. After incubation for 30 minutes, the amount of β-hexosaminidase released into the supernatants and in cell lysates was quantified using the fluorogenic substrate 4-methylumbelliferyl-N-acetyl-b-D-glucosaminide. Dose-response curves were generated by plotting the % of β-hexosaminidase release (y-axis) against the concentrations of peptides tested (x-axis). […]. (Table 2D).
row,EC50 [nM],Molecule
1,> 12500,Isovaleric Acid-E-T-H-[Dpa]-P-[Cys]-I-[Lys(2Peg11′_Palm)]-[bhPhe]-[Lys(2Peg20K)]-R-[Cys]-NH2 [Compound 47]

# Molecular target: T1, ferroportin endogenously expressed on T47D human breast carcinoma cells (human, UniProt Q9NP59 1-571)
# T1 sequence (looked up): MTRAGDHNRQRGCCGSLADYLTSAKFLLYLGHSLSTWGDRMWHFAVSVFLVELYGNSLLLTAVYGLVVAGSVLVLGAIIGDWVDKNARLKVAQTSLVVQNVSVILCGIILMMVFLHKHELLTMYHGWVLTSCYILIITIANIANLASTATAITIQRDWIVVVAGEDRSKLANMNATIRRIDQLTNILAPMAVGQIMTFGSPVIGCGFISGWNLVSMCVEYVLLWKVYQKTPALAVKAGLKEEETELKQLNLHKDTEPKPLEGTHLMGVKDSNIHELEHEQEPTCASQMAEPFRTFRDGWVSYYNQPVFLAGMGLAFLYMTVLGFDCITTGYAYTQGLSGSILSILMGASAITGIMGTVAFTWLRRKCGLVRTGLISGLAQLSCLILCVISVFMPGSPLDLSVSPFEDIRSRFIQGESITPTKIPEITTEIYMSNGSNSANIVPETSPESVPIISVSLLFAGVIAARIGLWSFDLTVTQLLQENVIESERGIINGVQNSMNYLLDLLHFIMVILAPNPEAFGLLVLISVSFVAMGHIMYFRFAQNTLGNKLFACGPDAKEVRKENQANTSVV
# Experiment: cell-based or functional assay
# Conditions: not given
row,IC50: T47D Internalization MSA [nM],Molecule
1,4.3,B1
2,1.3,B2
3,2.56,B3
4,1.95,B4

# Molecular target: T2, human ferroportin (Homo sapiens, UniProt Q9NP59)
# T2 construct: expressed in transfected cells
# T2 sequence (Q9NP59 1-571): T1 sequence (looked up)
# Experiment: FPN activity assay: internalization/degradation of ferroportin-GFP in stably transfected HEK293 cells (decrease in GFP fluorescence)
# Format: cell-based
# Conditions: Table 2A; HEK293 cells expressing human ferroportin-GFP, at least 18 hours incubation
# Experimental: Following internalization, the ferroportin protein is degraded.
# A retro inverse peptide is a peptide with a reversed sequence in all D amino acids. An example is that Hy-Glu-Thr-His-NH2 becomes Hy-DHis-DThr-DGlu-NH2. The EC50 of these reference compounds for ferroportin internalization/degradation was determined according to the FPN activity assay described above. These peptides served as control standards.
# These values were determined as described herein.
row,EC50 [nM],Molecule
1,> 3000,Isovaleric Acid-E-T-H-[Dpa]-P-[Cys]-I-[Lys(Ac)]-[bhPhe]-[Lys(2Peg20K)]-R-[Cys]-NH2 [Compound 46]
2,58.2,Isovaleric Acid-E-T-H-[Dpa]-P-[Cys]-I-[Lys(2Peg11′_Palm)]-[bhPhe]-[Lys(2Peg20K)]-R-[Cys]-NH2 [Compound 47]
3,103,Isovaleric Acid-E-T-H-[Dpa]-P-[Cys]-I-[Lys(Ahx_PEG20K)]-[bhPhe]-R-[Cys]-NH2 [Compound 51]
4,3.31,Isovaleric Acid-E-T-H-[Dpa]-P-[Cys]-I-[Lys(2Peg20K)]-[bhPhe]-[Lys(2Peg11′_Palm)]-R-[Cys]-NH2 [Compound 50]

# Same assay, conditions: Table 2B; HEK293 cells expressing human ferroportin-GFP, at least 18 hours incubation
row,EC50 [nM],Molecule
1,1080,Isovaleric Acid-E-T-H-[Dpa]-P—C—I-[Lys(PEG40KB)]-[bhPhe]-[Lys(PEG12_Palm)]-R—C—NH2 [Compound 296]
2,1360,Isovaleric Acid-E-T-H-[Dpa]-P—C—I-[Lys(1PEG2_1PEG2_Ahx_C18_Diacid)]-[bhPhe]-[(D)Lys(PEG40KB-C—NH2 [Compound 297]
3,357,Isovaleric Acid-E-T-H-[Dpa]-P—C—I-[Lys(1PEG2_1PEG2_Ahx_Palm)]-[bhPhe]-[(D)Lys(PEG20K-C—NH2 [Compound 314]
4,1780,Isovaleric Acid-E-T-H-[Dpa]-P—C—I-[Lys(PEG12_Palm)]-[bhPhe]-[Lys(PEG40KB)]-R—C—NH2 [Compound 295]
5,32.6,Isovaleric Acid-E-T-H-[Dpa]-P—C—I-[Lys(Ahx_Palm)]-[bhPhe]-[(D)Lys(PEG20K)]-C—NH2 [Compound 312]

# Same assay, conditions: Table 2D (Illustrative Monomer Hepcidin Analogues); ferroportin-GFP HEK293 cells; read-out: IC50: FPN internalisation
row,DC50 [nM],Molecule
1,20.6,CCC(=O)CC[C@H](NC(=O)CC(C)C)C(=O)N[C@H](C(=O)N[C@@H](Cc1cnc[nH]1)C(=O)N[C@H](C(=O)N1CCC[C@H]1C(=O)N[C@H]1CSSC[C@@H](C(N)=O)CC(=O)[C@@H](CCCCN)NC(=O)[C@H](CCC(C)C)NC(=O)[C@H](CCCCNC(=O)COCCOCCNC(=O)COCCOCCNC(=O)[C@H](CN)NC(=O)CCCCCCCCCCCCCCCCC(=O)O)NC(=O)[C@H]([C@@H](C)CC)NC1=O)C(c1ccccc1)c1ccccc1)[C@@H](C)O [Compound 509] (Isovaleryl-[X10]TH[Dip]PCIK([AEEA-AEEA-Dap-C18 diacid])[hLeu]; linker 6-C via X11)
2,14.3,CC[C@H](C)[C@@H]1NC(=O)[C@@H](NC(=O)[C@@H]2CCCN2C(=O)[C@@H](NC(=O)[C@H](Cc2ccncc2)NC(=O)[C@@H](NC(=O)[C@H](CCC(=O)OC)NC(=O)CC(C)C)[C@@H](C)O)C(c2ccccc2)c2ccccc2)CSSC[C@@H](C(N)=O)NC(=O)[C@@H](CCCCN)NC(=O)C[C@H](Cc2ccccc2)NC(=O)[C@H](CCCCNC(=O)COCCOCCNC(=O)COCCOCCNC(=O)[C@H](CN)NC(=O)CCCCCCCCCCCCCCCCC(=O)O)NC1=O [Compound 499]
3,37.4,COC(=O)CC[C@H](NC(=O)CC(C)C)C(=O)N[C@H](C(=O)N[C@@H](Cc1cnc[nH]1)C(=O)N[C@H](C(=O)N1CCC[C@H]1C1CSSC[C@@H](C(N)=O)NC(=O)[C@@H](CCCCN)NC(=O)C[C@H](Cc2ccccc2)NC(=O)[C@H](CCCCNC(=O)COCCOCCNC(=O)COCCOCCNC(=O)[C@H](CN)NC(=O)CCCCCCCCCCCCCCCCC(=O)O)NC(=O)C2(CCCCC2)NC1=O)C(c1ccccc1)c1ccccc1)[C@@H](C)O (stereo partly shown) [Compound 512]
4,31.3,CC[C@H](C)C1NC(=O)[C@@H](NC(=O)[C@@H]2CCCN2C(=O)[C@@H](NC(=O)[C@H](Cc2cnc[nH]2)NC(=O)[C@@H](NC(=O)[C@H](CCC(=O)OC)NC(=O)CC(C)C)[C@@H](C)O)C(c2ccccc2)c2ccccc2)SCSC[C@@H](C(N)=O)NC(=O)[C@@H](CCCCN)NC(=O)C2(Cc3ccccc3C2)NC(=O)[C@H](CCCCNC(=O)COCCOCCNC(=O)COCCOCCNC(=O)[C@H](CN)NC(=O)CCCCCCCCCCCCCCCCC(=O)O)NC1=O (stereo partly shown) [Compound 506] (Isovaleryl-E(OMe)TH[Dip]P[X9][ξIle]K([AEEA-AEEA-Dap-C18 diacid])[Aic][dK]C-NH2; thioether 6-11)

# Molecular target: T3, human ferroportin (SLC40A1) fused in frame with GFP, stably expressed in HEK293 cells (human, UniProt Q9NP59 1-571)
# T3 sequence (looked up): T1 sequence (looked up)
# Experiment: cell-based or functional assay
# Conditions: not given
row,FPN EC50 [nM],Molecule
1,103,Isovaleryl-ETH[Dip]PCIK([Ahx-PEG20K])[β3hF]RC-NH2 (disulfide 6-11 (inferred)) [Compound 51]
2,8.06,B5
3,9.81,B6
4,5,B7
5,> 3000,B8
6,90,B9
7,> 3000,Isovaleryl-ETH[Dip]PCIK(Ac)[β3hF]K(2Peg20K)RC-NH2 (disulfide 6-12 (inferred)) [Compound 46]
8,> 3000,Isovaleryl-ETH[Dip]PCIK(Ac)[β3hF]KRC-NH2 (disulfide 6-12 (inferred)) [Compound 42]
9,2.88,Isovaleryl-ETH[Dip][Npc]CI[dK][β3hF]K([Ahx-Palmitoyl])[dK]C-NH2 (disulfide 6-12 (inferred)) [Compound 5]
10,> 3000,B10
11,58.2,Isovaleryl-ETH[Dip]PCIK([2Peg11′-Palmitoyl])[β3hF]K(2Peg20K)RC-NH2 (disulfide 6-12 (inferred)) [Compound 47]
12,20,Isovaleryl-ETH[Dip]PCI[dK][β3hF]K([PEG12-Palmitoyl])RC-NH2 (disulfide 6-12 (inferred)) [Compound 27]
13,3.31,Isovaleryl-ETH[Dip]PCIK(2Peg20K)[β3hF]K([PEG12-Palmitoyl])RC-NH2 (disulfide 6-12 (inferred)) [Compound 50]
